Test [1] concerns the target T1, GPC3 N-terminal fragment (polypeptide consisting of the amino acid sequence represented by SEQ ID NO: 155) (human).
T1 construct: domain: transmembrane domain; also called GPC3 N-terminal fragment-expressing cell line; N-terminal polypeptide of GPC3; not shown: HA tag added to the N terminus by the pDisplay vector; myc tag added to the C terminus of the PDGFR by the pDisplay vector
Description: FCM of IgG on GPC3 N-terminal fragment-expressing cell line.

The target of test [2] is T2, GPC3 C-terminal fragment (polypeptide consisting of the amino acid sequence represented by SEQ ID NO: 156) (human).
T2 construct: domain: transmembrane domain; also called GPC3 C-terminal fragment-expressing cell line; C-terminal polypeptide of GPC3; not shown: HA tag added to the N terminus by the pDisplay vector; myc tag added to the C terminus of the PDGFR by the pDisplay vector
T2 sequence (P09619 other isoform, or with tags, fused parts or gaps): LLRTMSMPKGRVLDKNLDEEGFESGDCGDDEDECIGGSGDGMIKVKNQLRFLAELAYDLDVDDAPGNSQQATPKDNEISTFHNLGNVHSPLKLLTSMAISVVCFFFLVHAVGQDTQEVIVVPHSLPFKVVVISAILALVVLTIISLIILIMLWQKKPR
As to the kind of experiment: FCM of IgG on GPC3 C-terminal fragment-expressing cell line.

Here are results for 10 molecules from patent publication US20190359698A1 (YAMAGUCHI UNIVERSITY, published 2019).

Changes are numbered by the printed parent chain.

T1 sequence (P09619 other isoform, or with tags, fused parts or gaps): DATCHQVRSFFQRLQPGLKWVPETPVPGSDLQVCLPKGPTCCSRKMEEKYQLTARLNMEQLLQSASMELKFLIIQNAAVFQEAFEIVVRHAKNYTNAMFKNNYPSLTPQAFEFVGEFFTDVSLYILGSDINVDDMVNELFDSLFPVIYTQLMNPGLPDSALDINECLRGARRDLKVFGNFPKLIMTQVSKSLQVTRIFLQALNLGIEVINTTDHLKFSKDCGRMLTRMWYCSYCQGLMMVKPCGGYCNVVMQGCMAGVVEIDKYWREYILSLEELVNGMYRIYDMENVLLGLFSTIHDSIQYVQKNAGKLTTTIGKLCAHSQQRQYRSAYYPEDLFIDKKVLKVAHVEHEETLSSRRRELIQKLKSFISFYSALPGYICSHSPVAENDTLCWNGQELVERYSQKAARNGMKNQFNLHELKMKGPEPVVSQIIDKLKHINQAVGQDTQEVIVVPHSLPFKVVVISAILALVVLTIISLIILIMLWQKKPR

B1: IgG clone TF1413-02d028 (antibody, V domains shown)
VH: QVQLKESGPELEKPGASVKISCKASGYSFTGYNMNWVKQSNGKSLEWIGNIDPYYGGTSYNQKFKGKATLTVDKSSSTAYMQLKSLTSEDSAVYYCARGDYRAYYFDYWGQGTTLTVSS
VL: DIQMTQSPKFMSTSVGDRVSITCKASQNVRTAVAWYQQKPGQSPKALIYLASNRHTGVPDRFTGSGSGTDFTLTISNVQSEDLADYFCLQHWNYPLTFGAGTKLELKR
notes: also called TF1413-02d028 IgG antibody; scFv clone [TF1413-02d028] antibody
With B1, the values for the binding result in test [1] and in test [2] were “binds” and “no binding”, respectively.

B2: IgG clone TF1413-02e040 (antibody, V domains shown)
VH: EVMLVESGPELVKPGASMKISCKASGYSFTGYTMNWVKQSHGKNLEWIGLINPYNGGTSYNQNFKGKATLTVDKSSSTAYMELLSLTSEDSAVYYCARGYYGRFDYWGQGTTLTVSS
VL: B1 VL with Q3L, M4L
notes: also called TF1413-02e040 IgG antibody
Turning to B2, the values for the binding result in test [1] and in test [2] were “binds” and “no binding”, respectively.

B3: IgG clone TF1413-03e034 (antibody, V domains shown)
VH: B1 VH with Q1E, K5Q, E6Q, D100N, R102G, A103Y, Y105A, F106M, T114S, L115V
VL: B1 VL with Q3V, T5S
notes: also called TF1413-03e034 IgG antibody
As for B3, the binding result was “binds” in test [1] and “no binding” in test [2].

B4: IgG clone TF1413-03e015 (antibody, V domains shown)
VH: EVQLQQSGPELVKPGASMKISCKASGYSFTGYTMNWVKQSHGKNLEWIGLINPYNGGTSYNQKFKGKATLTVDKSSSTAYMELLSLTSEDSAVYYCARGDYYPPYAMDYWGQGTSVTVSS
VL: DIVMSQSPKFMSTSVGDRVSVTCKASQNVGTNVAWYQQKPGQSPKPLIYSASYRYSGVPDRFTGSGSGTDFTLTISNVQSEDLAEYFCQQYNRYPLTFGVGTKLEIKR
notes: also called TF1413-03e015 IgG antibody
As for B4, the binding result in test [1] was “no binding”.

B5: IgG clone TF1413-02e030 (antibody, V domains shown)
VH: EVQLQQSGAELVRPGALVKLSCKASGFNIKDYYMHWVKQRPEQGLEWIGWIDPENGNTIYDPKFQGKASITADTSSNTAYLQLSSLTSEDTAVYYCAISTMITTLDYWGQGTTLTVSS
VL: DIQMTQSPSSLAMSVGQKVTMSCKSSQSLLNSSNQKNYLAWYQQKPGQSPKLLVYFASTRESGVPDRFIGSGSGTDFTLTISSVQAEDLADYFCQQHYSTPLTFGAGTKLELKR
notes: also called TF1413-02e030 IgG antibody
With B5, the binding result in test [2] is given as “no binding”.

B6: IgG clone TF1413-02e014 (antibody, V domains shown)
VH: QVQLKQSGAELVRSGASVKLSCTASGFNIKDYYMHWVKQRPEQGLEWIGWIDPENGDTEYAPKFQGKATMTADTSSNTAYLQLSSLTSEDTAVYYCNAGYYDYDGYAMDYWGQGTSVTVSS
VL: DIVLTQSPKFMSTSVGDRVSITCKASQDVGTAVAWYQQKPGQSPKLLIYWASTRHTGVPDRFTGSGSGTDFTLTISNVQSEDLADYFCQQYSSYPLTFGGGTKLEIKR
notes: also called TF1413-02e014 IgG antibody
As for B6, the binding result in test [1] is “binds”; in test [2], “no binding”.

B7: IgG clone TF1413-03e005 (antibody, V domains shown)
VH: B6 VH with Q6E, G99F, S121R
VL: DVVMTQTPSSLSASLGERVSLTCRASQEISGYLSWLQQKPDGTIKRLIYAASTLDSGVPKRFSGSRSGSDYSLTISSLESEDFADYYCLQYASYPLTFGAGTKLELKR
notes: also called TF1413-03e005 IgG antibody
For the molecule B7, the binding result is reported as “binds” in test [1] and “no binding” in test [2].

B8: IgG clone TF1413-02d039 (antibody, V domains shown)
VH: EVKLVESGGGLVKPGGSLKLSCAASGFAFSSYDMSWVRQTPEKRLEWVAYISSGGGSTYYPDTVKGRFTISRDNAKNTLYLQMSSLKSEDTAMYYCARRGLRRAMDYWGQGTSVTVSS
VL: DVVMTQTPLSLPVSLGDQASISCRSSQSLVHSNGNTYLHWYLQKPGQSPKLLIYKVSNRFSGVPDRFSGSGSGTDFTLKISRVEAEDLGVYFCSQSTHVPLTFGAGTKLELKR
notes: also called TF1413-02d039 IgG antibody
On to B8, for which the binding result in test [2] is “no binding”.

B9: IgG clone TF1413-02e004 (antibody, V domains shown)
VH: QVQLQQSGAELVKPGAPVKLSCKASGYTFTSYWMNWVKQRPGRGLEWIGRIDPSDSETHYNQKFKDEATLTVDKSSSTAYIQLSSLTSEDSAVYYCARGYYAMDYWGQGTSVTVSS
VL: DIVLTQSPKFMSTSVGDRVSITCKASQDVSTAVAWYQQKPGQSPKLLIYSASYRYTGVPDRFTGSGSGTDFTFTISSVQAEDLAVYYCQQHYSTPTFGGGTKLEIKR
notes: also called TF1413-02e004 IgG antibody
Turning to B9, the figures for the binding result in test [1] and in test [2] were “binds” and “no binding”, respectively.

B10: IgG clone TF1413-03e004 (antibody, V domains shown)
VH: B9 VH with Q5K, E67K, A102G, M103S, D104N, S111T, V112L
VL: B4 VL with V3K, S5T, P46A, R93S, V100A, I106L
notes: also called TF1413-03e004 IgG antibody
B10: in test [2], the binding result is “no binding”.
